Source: paper PMC6258031 (Structure (London, England : 1993), 2017)
Blank lines part the entries; values can stand above or below the molecule they belong to. Non-standard residues stand in square brackets, D forms with d. SeMet = C[Se]CC[C@H](N)C(=O)O

B4: Bicc1 SAM R924E (native) (domain or fragment, human, UniProt Q9H694 870-939, looked up)
chain: NSSFKGSDLPELFSKLGLGKYTDVFQQQEIDLQTFLTLTDQDLKELGITTFGAREKMLLAISELNKNRRK

Key:
[1] = target: ANKS6 SAM (Homo sapiens) (UniProt Q68DC2); conditions: cited from earlier work
Sequence of ANKS6 SAM (Homo sapiens) (Q68DC2 770-839): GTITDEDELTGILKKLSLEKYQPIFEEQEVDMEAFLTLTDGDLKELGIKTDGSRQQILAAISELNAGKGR

[2] = target: the molecule itself; experiment: crystal structure
[3] = target: T1, Bicc1 SAM F920E (human, UniProt Q9H694 870-939, F920E); experiment: SEC-MALS
T1 sequence (looked up): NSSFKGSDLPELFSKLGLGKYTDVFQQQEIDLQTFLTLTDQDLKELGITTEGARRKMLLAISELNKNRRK

[4] = target: B4; experiment: SPR
[5] = target: T2, ANKS3 SAM F472E (human, UniProt Q6ZW76 421-490, F472E); experiment: SPR
T2 sequence (looked up): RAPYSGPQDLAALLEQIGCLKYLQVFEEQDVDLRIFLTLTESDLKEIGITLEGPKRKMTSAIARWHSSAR

Molecule: ANKS3 SAM (from UniProt Q6ZW76)
Kd [1]: 249 nM

B1: Bicc1 SAM R924E SeMet (domain or fragment, human, UniProt Q9H694 870-939, looked up)
chain: NSSFKGSDLPELFSKLGLGKYTDVFQQQEIDLQTFLTLTDQDLKELGITTFGAREK[SeMet]LLAISELNKNRRK
binding result [2]: binds

Molecule: B4
binding result [2]: binds

Other lines, results leading:

binding result [3]: binds
Kd [4]: 2200 ± 100 nM
B2: ANKS3 SAM I455E (domain or fragment, human, UniProt Q6ZW76 421-490, looked up)
chain: RAPYSGPQDLAALLEQIGCLKYLQVFEEQDVDLREFLTLTESDLKEIGITLFGPKRKMTSAIARWHSSAR

Kd [5]: 1350 ± 100 nM
Kd [4]: 1350 ± 100 nM
B3: Bicc1 SAM E898K (domain or fragment, human, UniProt Q9H694 870-939, looked up)
chain: NSSFKGSDLPELFSKLGLGKYTDVFQQQKIDLQTFLTLTDQDLKELGITTFGARRKMLLAISELNKNRRK

Kd [5]: 1350 ± 100 nM
Kd [4]: 1350 ± 100 nM
B5: Bicc1 SAM D911K (domain or fragment, human, UniProt Q9H694 870-939, looked up)
chain: NSSFKGSDLPELFSKLGLGKYTDVFQQQEIDLQTFLTLTDQKLKELGITTFGARRKMLLAISELNKNRRK
